Test results taken from US20170369523A1, “TEMPLATE-FIXED BETA-HAIRPIN PEPTIDOMIMETICS THAT ARE LIGANDS FOR G-PROTEIN-COUPLED RECEPTORS (GPCRS) AND ARE MODULATORS OF TRANSCRIPTION FACTORS AND COACTIVATORS” (POLYPHOR AG, priority 2008, published 2017).
Numbered stars: 1 amine (or outer) side, 2 acyl side, 3 side chain; on linkers, the order of the positions; unused ones are H or OH. Square brackets hold non-standard residues; d marks the D form. Glu(cHx) = L-glutamic acid cyclohexyl ester, O=C(CC[C@H](N[*:1])C(=O)[*:2])OC1CCCCC1; Hyp = O=C(O)[C@@H]1C[C@@H](O)CN1

Target: T1, NCoA-1 (UniProt Q15788 257-385, limits assumed)
T1 construct: also called SRC-1
T1 sequence (looked up): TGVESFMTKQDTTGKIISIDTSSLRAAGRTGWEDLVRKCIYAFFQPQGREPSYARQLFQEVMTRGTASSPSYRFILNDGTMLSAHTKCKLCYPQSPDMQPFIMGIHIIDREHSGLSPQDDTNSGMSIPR
Test: competition fluorescence polarization; displacement of FluoSTAT6 from NCoA-1
Protocol: The mixtures were shaken thoroughly. Fluorescence polarization was measured on a SPECTRAmax M5 spectrometer (Molecular device) following 5-30 min incubation at room temperature. FluoSTAT6 was excited at 490 nm and emission polarization was detected at 525 nm. 40 intensity measurements were collected for each well, 20 at horizontal position of the dynamic polarizer, 20 at parallel position. As the fraction of FluoSTAT6 bound to NCoA-1 is correlated to the fluorescence polarization (FP), after normalization, the fraction of bound FluoSTAT6 (B) was determined, and the KD was calculated according to B=[(1+P/R+KD/R)−((1+P/R+KD/R)²−4P/R)^{0.5}]/2, wherein P is the total probe concentration, R the total protein concentration and KD the dissociation constant (M. H. Roehrl, J. Y. Wang, G. Wagner, Biochemistry 2004, 3, 16056).
To determine the Kᵢ values of potential inhibitors of the STAT6/NCoA-1 interaction (competition fluorescence polarization) the compounds (dilution series from 0 to 100 μM final concentration) dissolved in HEPES buffer (10 mM HEPES, 150 mM NaCl, 3.4 mM EDTA, 0.1% BSA) were dispensed in a black 96 well plate (Greiner) and FluoSTAT6 (200 nM final concentration) in HEPES buffer was added. The mixture was completed by a HEPES buffer solution of NCoA-1 (1 μM final concentration) and processed as described above. STAT6Y (C-terminal tyrosine extended STAT6 794-814 peptide) was used as a positive control. As the total fluorescence intensity of FluoSTAT6 remains similar for all samples, the fraction of peptide bound to NCoA-1 is correlated to the fluorescence polarization.
Following normalization data were fitted with IGORpro Software® (WaveMetrics, Lake Oswego, Oreg., USA) to a sigmoid equation to determine IC₅₀ values.

Row | Binder | Ki [µM]
1 | cyclo(FEWLAWEF[dP][Hyp]) (SMILES CC(C)C[C@@H]1NC(=O)[C@H](Cc2c[nH]c3ccccc23)NC(=O)[C@H](CCC(=O)O)NC(=O)[C@H](Cc2ccccc2)NC(=O)[C@@H]2C[C@@H](O)CN2C(=O)[C@H]2CCCN2C(=O)[C@H](Cc2ccccc2)NC(=O)[C@H](CCC(=O)O)NC(=O)[C@H](Cc2c[nH]c3ccccc23)NC(=O)[C@H](C)NC1=O, cyclo(-P1..P8-template-)) [Ex. 2] | 4.7
2 | cyclo(FEWLDWEM[dP]P) (SMILES CSCC[C@@H]1NC(=O)[C@H](CCC(=O)O)NC(=O)[C@H](Cc2c[nH]c3ccccc23)NC(=O)[C@H](CC(=O)O)NC(=O)[C@H](CC(C)C)NC(=O)[C@H](Cc2c[nH]c3ccccc23)NC(=O)[C@H](CCC(=O)O)NC(=O)[C@H](Cc2ccccc2)NC(=O)[C@@H]2CCCN2C(=O)[C@H]2CCCN2C1=O, cyclo(-P1..P8-template-)) [Ex. 16] | 6.6
3 | cyclo(FEWGAWEF[dP]P) (SMILES C[C@@H]1NC(=O)CNC(=O)[C@H](Cc2c[nH]c3ccccc23)NC(=O)[C@H](CCC(=O)O)NC(=O)[C@H](Cc2ccccc2)NC(=O)[C@@H]2CCCN2C(=O)[C@H]2CCCN2C(=O)[C@H](Cc2ccccc2)NC(=O)[C@H](CCC(=O)O)NC(=O)[C@H](Cc2c[nH]c3ccccc23)NC1=O, cyclo(-P1..P8-template-)) [Ex. 7] | 7.1
4 | cyclo(FEWLAWLF[dP]P) (SMILES CC(C)C[C@@H]1NC(=O)[C@H](Cc2c[nH]c3ccccc23)NC(=O)[C@H](CCC(=O)O)NC(=O)[C@H](Cc2ccccc2)NC(=O)[C@@H]2CCCN2C(=O)[C@H]2CCCN2C(=O)[C@H](Cc2ccccc2)NC(=O)[C@H](CC(C)C)NC(=O)[C@H](Cc2c[nH]c3ccccc23)NC(=O)[C@H](C)NC1=O, cyclo(-P1..P8-template-)) [Ex. 24] | 24.3
5 | cyclo(FLWLAWEF[dP]P) (SMILES CC(C)C[C@@H]1NC(=O)[C@H](Cc2c[nH]c3ccccc23)NC(=O)[C@H](CC(C)C)NC(=O)[C@H](Cc2ccccc2)NC(=O)[C@@H]2CCCN2C(=O)[C@H]2CCCN2C(=O)[C@H](Cc2ccccc2)NC(=O)[C@H](CCC(=O)O)NC(=O)[C@H](Cc2c[nH]c3ccccc23)NC(=O)[C@H](C)NC1=O, cyclo(-P1..P8-template-)) [Ex. 22] | 8.9
6 | cyclo(FEWLYWEF[dP]P) (SMILES CC(C)C[C@@H]1NC(=O)[C@H](Cc2c[nH]c3ccccc23)NC(=O)[C@H](CCC(=O)O)NC(=O)[C@H](Cc2ccccc2)NC(=O)[C@@H]2CCCN2C(=O)[C@H]2CCCN2C(=O)[C@H](Cc2ccccc2)NC(=O)[C@H](CCC(=O)O)NC(=O)[C@H](Cc2c[nH]c3ccccc23)NC(=O)[C@H](Cc2ccc(O)cc2)NC1=O, cyclo(-P1..P8-template-)) [Ex. 12] | 9.3
7 | cyclo(FEWLAWEE[dP]P) (SMILES CC(C)C[C@@H]1NC(=O)[C@H](Cc2c[nH]c3ccccc23)NC(=O)[C@H](CCC(=O)O)NC(=O)[C@H](Cc2ccccc2)NC(=O)[C@@H]2CCCN2C(=O)[C@H]2CCCN2C(=O)[C@H](CCC(=O)O)NC(=O)[C@H](CCC(=O)O)NC(=O)[C@H](Cc2c[nH]c3ccccc23)NC(=O)[C@H](C)NC1=O, cyclo(-P1..P8-template-)) [Ex. 20] | 11.5
8 | cyclo(FEWYAWEF[dP]P) (SMILES C[C@@H]1NC(=O)[C@H](Cc2ccc(O)cc2)NC(=O)[C@H](Cc2c[nH]c3ccccc23)NC(=O)[C@H](CCC(=O)O)NC(=O)[C@H](Cc2ccccc2)NC(=O)[C@@H]2CCCN2C(=O)[C@H]2CCCN2C(=O)[C@H](Cc2ccccc2)NC(=O)[C@H](CCC(=O)O)NC(=O)[C@H](Cc2c[nH]c3ccccc23)NC1=O, cyclo(-P1..P8-template-)) [Ex. 11] | 8.7
9 | cyclo(FEWLDWEF[dP]P) (SMILES CC(C)C[C@@H]1NC(=O)[C@H](Cc2c[nH]c3ccccc23)NC(=O)[C@H](CCC(=O)O)NC(=O)[C@H](Cc2ccccc2)NC(=O)[C@@H]2CCCN2C(=O)[C@H]2CCCN2C(=O)[C@H](Cc2ccccc2)NC(=O)[C@H](CCC(=O)O)NC(=O)[C@H](Cc2c[nH]c3ccccc23)NC(=O)[C@H](CC(=O)O)NC1=O, cyclo(-P1..P8-template-)) [Ex. 19] | 3.7
10 | cyclo(MEWLDWEF[dP]P) (SMILES CSCC[C@@H]1NC(=O)[C@@H]2CCCN2C(=O)[C@H]2CCCN2C(=O)[C@H](Cc2ccccc2)NC(=O)[C@H](CCC(=O)O)NC(=O)[C@H](Cc2c[nH]c3ccccc23)NC(=O)[C@H](CC(=O)O)NC(=O)[C@H](CC(C)C)NC(=O)[C@H](Cc2c[nH]c3ccccc23)NC(=O)[C@H](CCC(=O)O)NC1=O, cyclo(-P1..P8-template-)) [Ex. 27] | 7.9
11 | cyclo(EEWLAWEF[dP]P) (SMILES CC(C)C[C@@H]1NC(=O)[C@H](Cc2c[nH]c3ccccc23)NC(=O)[C@H](CCC(=O)O)NC(=O)[C@H](CCC(=O)O)NC(=O)[C@@H]2CCCN2C(=O)[C@H]2CCCN2C(=O)[C@H](Cc2ccccc2)NC(=O)[C@H](CCC(=O)O)NC(=O)[C@H](Cc2c[nH]c3ccccc23)NC(=O)[C@H](C)NC1=O, cyclo(-P1..P8-template-)) [Ex. 23] | 16.4
12 | cyclo(FEWLGWEF[dP]P) (SMILES CC(C)C[C@@H]1NC(=O)[C@H](Cc2c[nH]c3ccccc23)NC(=O)[C@H](CCC(=O)O)NC(=O)[C@H](Cc2ccccc2)NC(=O)[C@@H]2CCCN2C(=O)[C@H]2CCCN2C(=O)[C@H](Cc2ccccc2)NC(=O)[C@H](CCC(=O)O)NC(=O)[C@H](Cc2c[nH]c3ccccc23)NC(=O)CNC1=O, cyclo(-P1..P8-template-)) [Ex. 8] | 3
13 | cyclo(FEWLAWYF[dP]P) (SMILES CC(C)C[C@@H]1NC(=O)[C@H](Cc2c[nH]c3ccccc23)NC(=O)[C@H](CCC(=O)O)NC(=O)[C@H](Cc2ccccc2)NC(=O)[C@@H]2CCCN2C(=O)[C@H]2CCCN2C(=O)[C@H](Cc2ccccc2)NC(=O)[C@H](Cc2ccc(O)cc2)NC(=O)[C@H](Cc2c[nH]c3ccccc23)NC(=O)[C@H](C)NC1=O, cyclo(-P1..P8-template-)) [Ex. 21] | 19.6
14 | cyclo(FEALDWEF[dP]P) (SMILES CC(C)C[C@@H]1NC(=O)[C@H](C)NC(=O)[C@H](CCC(=O)O)NC(=O)[C@H](Cc2ccccc2)NC(=O)[C@@H]2CCCN2C(=O)[C@H]2CCCN2C(=O)[C@H](Cc2ccccc2)NC(=O)[C@H](CCC(=O)O)NC(=O)[C@H](Cc2c[nH]c3ccccc23)NC(=O)[C@H](CC(=O)O)NC1=O, cyclo(-P1..P8-template-)) [Ex. 17] | 15.8
15 | cyclo(FEWLAWE[Glu(cHx)][dP]P) (SMILES CC(C)C[C@@H]1NC(=O)[C@H](Cc2c[nH]c3ccccc23)NC(=O)[C@H](CCC(=O)O)NC(=O)[C@H](Cc2ccccc2)NC(=O)[C@@H]2CCCN2C(=O)[C@H]2CCCN2C(=O)[C@H](CCC(=O)OC2CCCCC2)NC(=O)[C@H](CCC(=O)O)NC(=O)[C@H](Cc2c[nH]c3ccccc23)NC(=O)[C@H](C)NC1=O, cyclo(-P1..P8-template-)) [Ex. 9] | 1.5
